Measured values taken from patent US20260209318A1 (NATIONAL UNIVERSITY OF SINGAPORE, published 2026).

The binders below were run against BQ.1.1 spike protein (SARS-CoV-2 variant BQ.1.1, UniProt P0DTC2 14-1273) (assay: cell-based or functional assay).

| Binder | IC50 (pVNT) [ng/ml] |
| --- | --- |
| Ab43 (10x-L8N-c42) (antibody, V domains shown) VH: EVQLVESGGGLVKPGGSLRLSCAASGFTFSRHTMNWVRQAPGKGLEWVSSIGGSTPLSFYAESVKGRFSISRDNAKSSLFLQMSSLRADDTAVYYCVRDSIASVTTLFDLWGRGTVVTVSS VL: DIQMTQSPSSLSASVGDRVTITCRASQTIRNYINWYQQRPGKAPRLLIYDASTLQSGVPSRFSGGGSGTDFTLTISSLEPEDFATYYCQQSYVSPPEDSFGQGTKLEIK | ≤ 550 |
| Ab42 (10x-L8N-c41) (antibody, V domains shown) VH: EVQLLESGGGLVQPGGSLRLSCAGSGFTFSSYAMSWVRQAPGKGLEWVSSISSSGGLTFYADSVRGRSTISRDHSRNTLYLQMNSLRAEDTALYYCAREQGDSYDDYFDYWGQGTLVTVSS VL: DIQMTQSPSSLSASVGDRVTITCRASQGIRSSLAWYQQRPGKAPKLLLSAASILESGVPSRFSGSGSGTDYTLTINGLQPDDFATYYCQQYYVTPGITFGGGTKVEIR | ≤ 550 |
| Ab28 (10x-L8N-c1) (antibody, V domains shown) VH: QFQLVQSGAEVKKPGSSVKVSCRASGGSFTSHAISWVRQAPGQGFEWMGRIIPMFGIANYAPKFQGRVTMSADKFKDIVYMEVNSLTSEDTALYYCARSQPMTSVTTLWFDPWGQGTLVTVSS VL: EIVLTQSPGTLSLSPGERATLSCRASEPVGGSYLAWYQQKPGQAPRLLIHGASSRATGIPDRFSGSGSGTDFVLTISRLEPEDFAVYHCQQYASSPYTFGQGTKLEIK | ≤ 550 |
| Ab46 (10x-L8N-c63) (antibody, V domains shown) VH: QVHLVQSGAEVKKPGSSVKVSCKASGGTFSSHTVSWVRQAPGQGLEWMGRIIPPFGIVNYAQKFQGRVTITADESTSTAYMELSSLSSEDTAVYYCARSNVVVVTEAGWFDPWGQGTLVTVSS VL: DIQMTQSPSSVSASVGDRVTITCRASQGISSSLAWYQQKPGKAPKVLIFDASTLQSGVPSRFSGSGSGTDFTLTISNLRPEDFATYYCQQAHSFPFTFGPGTKVDIK | ≤ 550 |
| Ab35 (10x-L8N-c20) (antibody, V domains shown) VH: QVQLQESGPGLVKPSETLSLTCTVSGDSIYSYSWTWIRQPPGKGLEWIGQLYYNGSTSYNASLKSRVSISLDTSKNQFSLKLRFVTAADTAMYYCARVEYYSNYFDPWGQGTQVTVSS VL: EIVLTQSPATLSLSPGERATLSCRASQSVGSYLAWYQQKPGQAPRLLIYDASNRVPGIPARFSGSGSGTDFTLTISSLPPEDFAVYYCQQRSDWPPTFGGGTKVEIR | ≤ 550 |
| Ab47 (10x-L8N-c64) (antibody, V domains shown) VH: QVQLVQSGAEVKKPGSSVKVSCEASGDTFSRYAITWVRQAPGQGLEWMGRIIPMFGSANYAQKFQGRVSFTADKSTSTASMELSSLRSEDTAVYYCATSPYYSDSGGYYCDYWGQGSLVTVSS VL: DIQMTQSPSSLSASVGDRVTITCRASQGISNYLAWYQQKPGKAPKLLLYGASRLQSGVPSRFSGSGSGTDYTLTISSLQPEDFATFYCQQYYSAPRTFGQGTKVEIK | ≤ 550 |
| Ab44 (10x-L8N-c53) (antibody, V domains shown) VH: QVQLQQSGAEVKKPGSSVKVSCESSGGTFTSHAINWVRQAPGQRLEWMGRIIPVLGVAAYAQKFQGRVTLTADKFTSTAYMELSSLRSEDTAVYFCARSAYNYDSSGYHFDYWGQGTLVLVSS VL: DIQMTQSPSTLSASVGDRVTITCRASQSISNWLAWYQQKPGTAPKLLIFKASTLQSGVPSRFSGSGSGTEFTLTISSLQPDDFATYHCQQYHSSRSFGQGTKVEIK | ≤ 550 |
| Ab39 (10x-L8N-c30) (antibody, V domains shown) VH: QVQLVQSGAEVKKPGSSVKISCKASGDTSSSYTINWVRQAPGQGLEWMGRIIPMFNRANYARKFQGRVTMTADRSTDTAYMEVSSLTSDDTAVYYCARTWIEPHNWFDPWGQGTLVTVSS VL: EIVLRQSPGTLSLSPGERATLSCRASQSVSGNHLAWYQRKPGQAPRLLIYAASSRATGIPDRFSGSGSGTDFTLTINRLEPEDFAVFYCQQYGTSPPTFGGGTKVEIK | ≤ 550 |
| Ab41 (10x-L8N-c39) (antibody, V domains shown) VH: QVQLVQSGAEVKKPGASVKVSCKGSGYTFTDYGISWVRQAPGQGLEWMGWIRAYNGNTDYAQKFQGRVTMTRDTSTTTAYMELRSLRSDDTAVYFCALNLIAAAATPFDHWGQGTLVTVSS VL: EIVLTQSPGTLSLSRGERATLSCRASQSVSSSYLAWYQQKRGQAPRLLIYGATSRATGIPDRFSGSGSGTDFTLTISRLEPEDFAVYYCQHYGSSPPPFGGGTKVEIR | ≤ 550 |
| Ab40 (10x-L8N-c32) (antibody, V domains shown) VH: QVQLQESGPRLVKPSETLSLTCTVSGGSISSYYWTWIRQPPGKGLEWIGYISYSGSTNYNPSLRSRVTMSVDTSKNQFSLDLNSVTAADTAVYYCATDGGGFYPGYFPHWGQGTLVTVSS VL: DIQMTQSPSSLSASVGDRVTITCRASQSISDYVNWYQQKPGRAPRLLIYAPSTLQSGVPSRFSGSGSGTDFTLTISNLQPEDFGTYFCQQSYSTPPYTFGQGTKVEMK | ≤ 550 |
| Ab27 (E12.2) (antibody, V domains shown) VH: EVQLVESGGGLVQPGGSLRLSCGASGITVSSNYMNWVRQAPGKGLEWVSTLYAGGSTFYADSVKGRFIISRDNSKNTLYLQMNSLRADDTAVYYCARDLVDYGMDVWGQGTTVTVSS VL: DIQLTQSPSSLSASVGDRVTITCRASQGISSYLAWYQQKPGKAPKLLIYAASTLQSGVPSRFSGSGSGTDFTLTISSLQPEDFATYYCQQLNSYSPFTFGPGTKVDIK | ≤ 550 |
| Ab51 (10x-L8N-c86) (antibody, V domains shown) VH: EVQLVESGGGLVKPGESLRLSCAASGFTFSSSSLNWVRQAPGKGLEWVSSISISGDYTYYADSVKGRFTISRDNGKNSVYLQMDRLRVEDTAMYYCARDRFGFYDMLAHSYNVGFFQSWGQGTLVAVSS VL: DIRMTQSPSSLSASVGDSVTITCRASQDITNYLAWFQQKPGKAPKSLIYSASILQSGVPSKFSGSGSGTDFTLTISSLQPEDFATYYCQQYLTYPITFGQGTRLEIK | ≤ 550 |
| Ab49 (10x-L8N-c73) (antibody, V domains shown) VH: QVQLVQSGAEVKKPGSSVKVSCKASGGTFTTYAIAWVRQAPGQGLEWMGRIIPTLDNPNYAQKFQGRVSITADKSTGTSYMELRSLRSDDTAVYYCAHVSYDSSGPHLSWYFNLWGRGTLITVSS VL: DIQMTQSPSTLSASVGDRVTITCRASQSIPSRLAWYQHKPGEAPKLLIYEASTLESGVPSRFSGSGSGTEFTLTITSLQPDDFATYFCQGWNAFGGGTKVEIK | ≤ 550 |
| Ab50 (10x-L8N-c84) (antibody, V domains shown) VH: QVQLVQSGAAVKKPGSSVKVSCEASGGTFSRFAVNWVRQAPGQGLEWMGRIIPLFAIANYPQRFQGRVIMSADRSTNITYMELSRLTSEDTAVYYCAREIDTVIDPAMDVFHGMEVWGQGTTVIVSS VL: QSVLTQPPSASGTPGQRVTISCSGRSSNIGSNYVHWYQQLPGTAPKLLIYRNNQRPSGVPDRFSGSKSGTSASLAISGLRSEDEADYYCAGWDDSLSGAVFGGGTKLSVL | ≤ 550 |
| Ab32 (10x-L8N-c12) (antibody, V domains shown) VH: EVQLVESGGGLVQPGGSLRVTCVASGFAVRTNFMTWVRQAPGKGLQCVSVIYGDGSTYYADSVKGRFSISRDNSKNTVYLQMNSLSAEDTAVYYCAREVSHAFDLWGPGTMVTVSS VL: DIQLTQSPSTLSASLGDRVTITCRASQSISGWLAWYQQKPGRAPQLLIYKASLLETGVPSRFSGSGSGTVFTLTISSLQPDDFATYYCQQYDTYSPYTFGQGTKLEIK | ≤ 550 |
| Ab48 (10x-L8N-c72) (antibody, V domains shown) VH: QVQLQQWGAGLLKPSETLSLTCTVYGGSISGYYWNWIRQPPGKGLEWIGEIDHSGNTNYNSSLKSRITIALDTSKKEISLKVTSVTAADTAVYYCARLDYYHYSQDAWGQGTTVTVSS VL: EIVLTQSPDFQSVTPKERVTITCRASQSIGASLHWYQLKPNQSPKLLIKYASQSISGVPSRFSGSGSGTDFTLTISSLEAEDAATYYCLQSSNLYSFGQGTKLEIK | ≤ 550 |
